From patent publication US20240262926A1 (published 2024)
Changes are numbered by the printed parent chain.

T1: recombinant monkey TfR (r monkey TfR: Sino Biological Inc.) (cynomolgus monkey (Macaca fascicularis), UniProt Q5RDH6 89-760 (Pongo abelii entry))
T1 construct: Bought product; also called r monkey TfR-ECD (Histag); cynomolgus monkey TfR; not shown: histidine tag attached to the N-terminus
T1 chain: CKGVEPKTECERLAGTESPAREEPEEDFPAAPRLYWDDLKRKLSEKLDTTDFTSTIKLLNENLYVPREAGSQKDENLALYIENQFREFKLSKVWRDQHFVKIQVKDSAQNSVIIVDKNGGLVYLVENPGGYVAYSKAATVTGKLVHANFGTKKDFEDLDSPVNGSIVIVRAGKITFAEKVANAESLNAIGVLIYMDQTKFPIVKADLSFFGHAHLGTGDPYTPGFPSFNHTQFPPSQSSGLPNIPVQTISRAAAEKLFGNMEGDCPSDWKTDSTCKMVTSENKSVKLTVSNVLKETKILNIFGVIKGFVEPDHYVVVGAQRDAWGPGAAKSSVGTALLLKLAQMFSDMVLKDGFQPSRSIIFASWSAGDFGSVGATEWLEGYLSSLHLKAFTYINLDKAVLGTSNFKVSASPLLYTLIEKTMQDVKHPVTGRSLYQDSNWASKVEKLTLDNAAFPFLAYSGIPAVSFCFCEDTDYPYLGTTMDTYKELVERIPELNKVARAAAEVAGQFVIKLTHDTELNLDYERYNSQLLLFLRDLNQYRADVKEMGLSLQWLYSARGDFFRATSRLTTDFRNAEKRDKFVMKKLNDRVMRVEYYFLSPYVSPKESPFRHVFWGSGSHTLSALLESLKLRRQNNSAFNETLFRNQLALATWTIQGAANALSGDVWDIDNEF

B1: anti-hTfR antibody No. 3 (antibody, V domains shown)
VH: EVQLQESGAELVRPGTSVKISCKASGYTFMNYWLGWVKQRPGHGLEWIGDIYPGGDYPTYSEKFKVKAILTADTSSSSVYLHLSSLTSEDSAVYFCARSGNYDEVAYWGQGTLVTVST
VL: DIVMTQTTLSLPVSLGDQASISCRSSQSLVHSNGNTYLHWYLQKPGQSPKLLIYKVSNRFSGVPDRFSGSGSGTDFTLKISRVEAEDLGVFFCSQSTHVPWTFGGGTKLEIKR
notes: Mouse hybridoma antibody purified on Protein G; also called mouse anti-hTfR antibody No. 3; product of Clone 3 line
B2: anti-hTfR antibody No. 14 (antibody, V domains shown)
VH: EVQLQESGPELLKPGASVKMSCKASGYAFTGYVIHWVKQKPGQGLEWIGFLNPHKDDSEYNEKFRGKATLTSDKSSSTAYMDLSSLTSEDSAVYYCARGYYYYSMDYWGQGTSVTVSS
VL: DIVLTQTPVIMSAYPGEKVTLTCSASSNINSIHWYQQKPGTSPKRWIYDTSNLASGVPARFSGSGSGTSYSLTISSMEAEDAASYYCHQRSGYPFTFGSGTKLEIK
notes: Mouse hybridoma antibody purified on Protein G; also called mouse anti-hTfR antibody No. 14; product of Clone 14 line
B3: hBDNF-anti-hTfR antibody 7 (other)
heavy: HSDPARRGELSVCDSISEWVTAADKKTAVDMSGGTVTVLEKVPVSKGQLKQYFYETKCNPMGYTKEGCRGIDKRHWNSQCRTTQSYVRALTMDSKKRIGWRFIRIDTSCVCTLTIKRGRGSGGGGSGGGGSGGGGSGGGGSGGGGSEVQLVQSGAEVKKPGESLKISCKGSGYSFTNYWLGWVRQMPGKGLEWMGDIYPGGDYPTYSEKFKVQVTISADKSISTAYLQWSSLKASDTAMYYCARSGNYDEVAYWGQGTLVTVSSASTKGPSVFPLAPSSKSTSGGTAALGCLVKDYFPEPVTVSWNSGALTSGVHTFPAVLQSSGLYSLSSVVTVPSSSLGTQTYICNVNHKPSNTKVDKKVEPKSCDKTHT
light: DIVMTQTPLSLSVTPGQPASISCRSSQSLVHSNGNTYLHWYLQKPGQSPQLLIYKVSNRFSGVPDRFSGSGSGTDFTLKISRVEAEDVGVYYCSQSTHVPWTFGQGTKVEIKRTVAAPSVFIFPPSDEQLKSGTASVVCLLNNFYPREAKVQWKVDNALQSGNSQESVTEQDSKDSTYSLSSTLTLSKADYEKHKVYACEVTHQGLSSPVTKSFNRGEC
B4: hBDNF-anti-hTfR antibody 5 (other)
chain: HSDPARRGELSVCDSISEWVTAADKKTAVDMSGGTVTVLEKVPVSKGQLKQYFYETKCNPMGYTKEGCRGIDKRHWNSQCRTTQSYVRALTMDSKKRIGWRFIRIDTSCVCTLTIKRGRGSGGGGSGGGGSGGGGSGGGGSGGGGSEVQLVQSGAEVKKPGESLKISCKGSGYSFTNYWLGWVRQMPGKGLEWMGDIYPGGDYPTYSEKFKVQVTISADKSISTAYLQWSSLKASDTAMYYCARSGNYDEVAYWGQGTLVTVSSGGGGSGGGGSGGGGSDIVMTQTPLSLSVTPGQPASISCRSSQSLVHSNGNTYLHWYLQKPGQSPQLLIYKVSNRFSGVPDRFSGSGSGTDFTLKISRVEAEDVGVYYCSQSTHVPWTFGQGTKVEIK
B5: humanized anti-hTfR antibody No. 3-2 (antibody, human IgG1, kappa)
heavy: not shown
light: B3 light with T7S, S12P, Q17E
notes: IgG1
B6: humanized anti-hTfR antibody No. 3-4 (antibody, human IgG1, kappa, V domains shown)
VH: EVQLVQSGAEVKKPGESLKISCKGSGYSFTNYWLGWVRQMPGKGLEWMGDIYPGGDYPTYSEKFKVQVTISADKSISTAYLQWSSLKASDTAMYYCARSGNYDEVAYWGQGTLVTVSS
VL: B1 VL with T8P, P12S, S14T, L15P, D17Q, Q18P, K50Q, L88V, G105Q, L109V
notes: IgG1
B7: humanized anti-hTfR antibody No. 3-3 (antibody, human IgG1, kappa)
heavy: not shown
light: B3 light with S12P, Q17E, K108R, V109L
notes: IgG1
B8: humanized anti-hTfR antibody No. 2 (antibody, human IgG1, kappa, V domains shown)
VH: QVQLVQSGAEVKKPGASVKVSCKASGYTFTDYVMHWVRQAPGQGLEWIGVISTYYGHGSYNQRFKGRATMTVDKSISTAYMELVRLRSDDTAVYYCVRGGYGSSSLAGNFDVWGQGTTVTVSS
VL: EIVLTQSPDFQSVTPKEKVTITCRASQSISNNLQWYQQKPDQSPKLLIKYASQSISGIPSRFSGSGSGTDFTLTINSLEAEDAATYLCQQSNSWPRTFGQGTKVEIKR
notes: IgG1; expressed in CHO-K1, purified on Protein A
B9: humanized anti-hTfR antibody No. 1 (antibody, human IgG1, kappa, V domains shown)
VH: EVQLVESGGGLVQPGGSLRLSCAASGLTFSNYGMSWVRQAPGKGLELVANINTNGGSTYYPDSVKGRFTISRDNAKNSLYLQMNSLRAEDTAVYYCTNNRYDEDYWGQGTLVTVSS
VL: DIQVTQSPSFLSASVGDRVTITCKASQDVNSAVAWFQQKPGKAPKLLIYWTSTRHTGVPDRFSGSGSGTVYTLTISSLQPEDFATYYCQQHYSTPRTFGGGTKVEIKR
notes: as for B8

Target: T1, recombinant monkey TfR (r monkey TfR: …)
Test: BLI (Octet RED96), His-tagged TfR ECD loaded on Ni-NTA sensor, antibody as analyte
Method: (§1) By measuring the variations of this shift between the interfering waves, determination of the number of the molecules bound to the layer of the biomolecules immobilized to the sensor tip surface and kinetic analysis of it can be performed in real time. The measurement was performed according generally to the operating manual attached to Octet RED96. As a human TfR, a recombinant human TfR (r human TfR: Sino Biological Inc.) was used, which had the amino acid sequence of the hTfR extracellular region, i.e., the cysteine residue at the position 89th from the N-terminal side to the phenylalanine at the C-terminus, of the amino acid sequence set forth as SEQ ID NO:1, with a histidine tag attached to the N-terminus. As a monkey TfR, a recombinant monkey TfR (r monkey TfR: Sino Biological Inc.) was used, which had the amino acid sequence of the cynomolgus monkey TfR extracellular region, i.e., the cysteine residue at the position 89th from the N-terminal side to the phenylalanine at the C-terminus, of the amino acid sequence set forth as SEQ ID NO:2, with a histidine tag attached to the N-terminus.
(§2) Each of the antibodies (anti-hTfR antibody Nos. 1 to 14) purified above was subjected to 2-fold dilution steps with HBS-P+(10 mM HEPES containing 150 mM NaCl, 50 μM EDTA and 0.05% Surfactant P20) to prepare antibody solutions of 7 different concentrations, 0.78125 to 50 nM (0.117 to 7.5 μg/mL). These antibody solutions were used as the sample solutions. The r human and r monkey TfRs were respectively diluted with HBS-P+ to prepare 25 μg/mL solutions, which were used as r human TfR-ECD (Histag) solution and r monkey TfR-ECD (Histag) solution, respectively.
(§3) Each of the sample solutions prepared above by 2-fold dilution steps was added, 200 μL/well, to a 96-well plate, black (Greiner Bio-One Inc.). Each of the r human TfR-ECD (Histag) solution and the r monkey TfR-ECD (Histag) solutions prepared above was added, 200 μL/well, to predetermined wells. To respective wells for baseline, dissociation and washing were added HBS-P+, 200 μL/well. To wells for regeneration were added 10 mM Glycine-HCl, pH 1.7, 200 μL/well. To wells for activation was added 0.5 mM NiCl₂ solution, 200 μL/well. The plate and biosensor (Biosensor/Ni-NTA: ForteBio Inc., a division of Pall Corporation) were set in the prescribed positions of Octet RED96.

Row | Kd | koff | kon | Binder
1 | < 0.001 nM | < 1e-07 s⁻¹ | 389000 M⁻¹ s⁻¹ | B1
2 | 0.0516 nM | 3.61e-05 s⁻¹ | 700000 M⁻¹ s⁻¹ | B2

What follows are binders tested against T2, recombinant human TfR (r human TfR: Sino Biological Inc.) (human, UniProt P02786 89-760) in the same assay as above.
T2 construct: Bought product; also called r human TfR-ECD (Histag); hTfR; not shown: histidine tag attached to the N-terminus
Method: as §1, §2, §3

Row | Kd | koff | kon | Binder
3 | < 0.001 nM | < 1e-07 s⁻¹ | 653000 M⁻¹ s⁻¹ | B1
4 | < 0.001 nM | < 1e-07 s⁻¹ | 961000 M⁻¹ s⁻¹ | B2

These binders were tested against human TrkB (GenBank Acc. No. NP_001018074.1) expressed in CHO cells (human, UniProt Q16620 32-822) (assay: cell-based or functional assay).
human TrkB (GenBank Acc. No. NP_001018074.1) expressed in CHO cells, sequence (Q16620 32-822): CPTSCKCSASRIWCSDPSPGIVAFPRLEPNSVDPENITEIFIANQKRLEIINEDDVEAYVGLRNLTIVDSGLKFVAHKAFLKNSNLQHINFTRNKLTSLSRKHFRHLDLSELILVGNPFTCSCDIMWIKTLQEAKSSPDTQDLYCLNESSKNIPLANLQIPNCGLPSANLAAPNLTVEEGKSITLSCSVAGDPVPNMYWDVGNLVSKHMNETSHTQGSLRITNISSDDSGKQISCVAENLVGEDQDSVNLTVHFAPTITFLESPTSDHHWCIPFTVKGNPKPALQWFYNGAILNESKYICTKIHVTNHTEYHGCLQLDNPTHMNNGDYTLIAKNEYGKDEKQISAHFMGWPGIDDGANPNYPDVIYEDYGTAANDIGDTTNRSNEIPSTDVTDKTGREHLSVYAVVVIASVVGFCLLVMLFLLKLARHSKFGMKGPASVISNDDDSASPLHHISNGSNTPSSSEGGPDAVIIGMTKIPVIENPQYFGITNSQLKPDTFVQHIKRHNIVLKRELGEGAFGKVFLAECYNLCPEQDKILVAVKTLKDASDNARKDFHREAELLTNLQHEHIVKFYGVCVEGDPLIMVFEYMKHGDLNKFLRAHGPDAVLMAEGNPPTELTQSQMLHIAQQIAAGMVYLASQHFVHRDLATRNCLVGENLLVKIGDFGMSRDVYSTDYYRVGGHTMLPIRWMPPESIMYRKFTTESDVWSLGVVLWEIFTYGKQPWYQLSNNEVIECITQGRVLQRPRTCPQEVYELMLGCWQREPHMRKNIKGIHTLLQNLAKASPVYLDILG

Row | BDNF activity (TrkB agonistic EC50, nmol/L) | Binder
5 | 0.23 nmol/L | B3
6 | 0.092 nmol/L | B4

Target: T1, recombinant monkey TfR (r monkey TfR: …)
Test: BLI (Octet RED96), method of Example 7, His-tagged TfR ECD on Ni-NTA sensor
Method: as §2
as §3, with “RED96. […] The measurement was performed at 25 to 30° C.” for “RED96.”
(§4) The affinity of the humanized anti-hTfR antibodies obtained in Example 13 to human and monkey TfRs was measured by the method described in Example 7.

Row | Kd | koff | kon | Binder
7 | 1.77 nM | 0.000876 s⁻¹ | 495000 M⁻¹ s⁻¹ | B5
8 | 0.26 nM | 0.000135 s⁻¹ | 519000 M⁻¹ s⁻¹ | B6
9 | 1.91 nM | 0.000932 s⁻¹ | 488000 M⁻¹ s⁻¹ | B7
10 | 0.0755 nM | 3.67e-05 s⁻¹ | 487000 M⁻¹ s⁻¹ | B8
11 | < 0.001 nM | < 1e-07 s⁻¹ | 253000 M⁻¹ s⁻¹ | B9

These binders were tested against T2, recombinant human TfR (r human TfR: …) in the same assay as above.
Method: as §2
as §3, with “RED96. […] The measurement was performed at 25 to 30° C.” for “RED96.”
as §4

Row | Kd | koff | kon | Binder
12 | 0.0239 nM | 1.45e-05 s⁻¹ | 606000 M⁻¹ s⁻¹ | B5
13 | < 0.001 nM | < 1e-07 s⁻¹ | 1.01e+06 M⁻¹ s⁻¹ | B6
14 | 0.0209 nM | 1.25e-05 s⁻¹ | 600000 M⁻¹ s⁻¹ | B7
15 | < 0.001 nM | < 1e-07 s⁻¹ | 197000 M⁻¹ s⁻¹ | B8
16 | < 0.001 nM | < 1e-07 s⁻¹ | 393000 M⁻¹ s⁻¹ | B9
